Source: publication doi:10.1101/2020.08.09.229716

Molecular target: Gβγ subunits (fluorescent-tagged, of the FRET Gαi activity reporter) (UniProt P62873)
Experiment: FRET or BRET

Substance | loss of FRET signal after EGF stimulation | reduction in FRET signal compared to WT and 3YF
Gαi1-WT activity reporter (fluorescent-tagged Gαi) (from UniProt P63096 1-354) (natural protein) | 50% | 
Gαi1-Y154H activity reporter (from UniProt P63096 1-354) (natural protein) |  | 80%
